In publication PMC11764276:

Target: 2196 HC + alphamod1 LC (human)
Experiment: SPR; Biacore 8k; antibody captured on a Series S Protein A chip to ~200 RU or greater; 4X serially diluted RBD starting at 1,000 nM flowed at 50 uL/min, 120 s contact, 600 s dissociation; HBS-EP+ buffer; 1:1 Langmuir fitting, steady state analysis, or two-state reaction fitting

Sequence of 2196 HC + alphamod1 LC (human) (heavy, as listed by the source, chain 1 of 2): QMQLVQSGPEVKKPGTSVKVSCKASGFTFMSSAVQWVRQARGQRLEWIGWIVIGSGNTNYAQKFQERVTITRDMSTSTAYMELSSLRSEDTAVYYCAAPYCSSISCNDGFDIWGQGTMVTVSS
Sequence of 2196 HC + alphamod1 LC (human) (light, as listed by the source, chain 2 of 2): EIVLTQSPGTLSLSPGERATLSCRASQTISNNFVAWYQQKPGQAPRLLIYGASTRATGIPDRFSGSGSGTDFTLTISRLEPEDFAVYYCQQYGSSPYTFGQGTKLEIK

Substance: RBD (residues 334–527 of the SARS-CoV-2 spike glycoprotein) (from UniProt P0DTC2 334-527) (domain or fragment)
- Kd: 99.4 nM
